Source: patent publication US20220073599A1

B1: Brolucizumab-analogue (scFv, INN chains, looked up, V domains shown)
VH: EVQLVESGGGLVQPGGSLRLSCTASGFSLTDYYYMTWVRQAPGKGLEWVGFIDPDDDPYYATWAKGRFTISRDNSKNTLYLQMNSLRAEDTAVYYCAGGDHNSGWGLDIWGQGTLVTVSS
VL: EIVMTQSPSTLSASVGDRVIITCQASEIIHSWLAWYQQKPGKAPKLLIYLASTLASGVPSRFSGSGSGAEFTLTISSLQPDDFATYYCQNVYLASTNGANFGQGTKLTVL
modifications: scFv
B2: bispecific anti-VEGF-A/anti-ANG2 Fab fragment P1AD9820 (Fab, V domains shown)
VH: SEHLVESGGGLVKPGGSLRLSCATADFFEYDDMSWVRQAPGKGLEWVGSISPKGDHKYLNTKFIGRFTISRDDSKNTLYLQMNSLRAEDTAVYYCARDVGFFDWWGQGTLVTVSS
VL: AIYMHQEPSSLSASVGDRVTITCHGSYWLNSEVAWYQQKPGKAPKLLIFDGDFKVYEVPSRFSGSGSHEDYTLTISSLQPEDFATYYCQQYRYHPYTFGHGTKVEIKR

How the values were obtained:
[1] = biological target: human VEGFA-121-His (human) (UniProt P15692); test: KinExA equilibrium titration in solution, VEGFA-121
Sequence of human VEGFA-121-His (human) (P15692 other isoform, or with tags, fused parts or gaps): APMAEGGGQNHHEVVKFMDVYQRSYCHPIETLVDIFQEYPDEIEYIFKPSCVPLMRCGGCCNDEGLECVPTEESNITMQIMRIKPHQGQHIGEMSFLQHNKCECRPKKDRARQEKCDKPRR

human VEGFA-165 (human) = human VEGFA-165 (human) (UniProt P15692); test: KinExA, VEGFA-165; set-up for VEGFA-165 not described
Sequence of human VEGFA-165 (human) (P15692 other isoform, or with tags, fused parts or gaps limits assumed): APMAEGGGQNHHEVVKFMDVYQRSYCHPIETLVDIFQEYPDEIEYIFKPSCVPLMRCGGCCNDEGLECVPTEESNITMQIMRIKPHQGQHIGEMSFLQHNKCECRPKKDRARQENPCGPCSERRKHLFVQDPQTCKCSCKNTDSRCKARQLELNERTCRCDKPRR

Pig VEGF-A-121 (pig) = Pig VEGF-A-121 (pig) (UniProt P49151); test: SPR crossreactivity set-up, VEGF-A121-His captured by anti-His antibody, Fab injected, single cycle kinetics
Sequence of Pig VEGF-A-121 (pig) (P49151 other isoform, or with tags, fused parts or gaps limits assumed): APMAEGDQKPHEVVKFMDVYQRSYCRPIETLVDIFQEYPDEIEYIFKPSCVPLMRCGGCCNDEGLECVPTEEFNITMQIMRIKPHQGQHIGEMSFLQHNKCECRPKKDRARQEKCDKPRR

Binder | Kd [1] [pM] | Kd (human VEGFA-165 (human)) [pM] | Kd (Pig VEGF-A-121 (pig)) [pM] | koff (Pig VEGF-A-121 (pig)) [s⁻¹] | kon (Pig VEGF-A-121 (pig)) [M⁻¹ s⁻¹] | t1/2 (Pig VEGF-A-121 (pig)) [min]
B1 | 2 | 1 | – | – | – | –
B2 | – | – | 2790 | 0.000499 | 179000 | 23
